The results in this text go back to patent publication US20070196883A1 (UNIVERSITY OF DUNDEE, published 2007).

One test has as its target T1, GST-MSK1 (UniProt O75582 1-802).
T1 construct: not shown: glutathione S-transferase (GST) tag
As to the kind of experiment: GST pull-down from 293 cells, PDK1 immunoblot and activity. (In general: In western blotting, separated proteins are transferred to a membrane and probed.)

The target in test [1] is T2, His-PDK1 (Myc-PDK1 with an N-terminal hexahistidine sequence, from Sf21 insect cells) (human, UniProt O15530 1-556).
T2 construct: Purified by Ni-NTA agarose, >90% homogeneous; also called His-tagged PDK1
T2 sequence: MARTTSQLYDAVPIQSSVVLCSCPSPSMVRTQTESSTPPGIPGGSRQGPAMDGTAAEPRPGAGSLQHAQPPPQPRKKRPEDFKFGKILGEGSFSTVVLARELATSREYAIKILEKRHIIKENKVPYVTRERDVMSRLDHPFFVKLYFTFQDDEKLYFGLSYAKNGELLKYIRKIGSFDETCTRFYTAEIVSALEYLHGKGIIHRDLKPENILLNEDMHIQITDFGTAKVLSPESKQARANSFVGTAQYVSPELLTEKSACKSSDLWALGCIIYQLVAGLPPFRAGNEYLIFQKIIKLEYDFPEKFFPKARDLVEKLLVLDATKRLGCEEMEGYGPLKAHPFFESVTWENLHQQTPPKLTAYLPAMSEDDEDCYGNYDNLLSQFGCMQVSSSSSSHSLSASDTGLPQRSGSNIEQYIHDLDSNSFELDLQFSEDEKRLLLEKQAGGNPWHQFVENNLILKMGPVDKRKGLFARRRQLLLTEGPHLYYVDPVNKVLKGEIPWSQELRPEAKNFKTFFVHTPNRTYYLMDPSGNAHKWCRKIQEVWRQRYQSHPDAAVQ
Kind of test: SPR competition: 0.5 µM His-PDK1 mixed with 0-3 µM free Region B peptide, injected over the immobilised peptide.

Test [2] addresses T2, His-PDK1 (Myc-PDK1 with an N-terminal …). As to the kind of experiment: SPR competition with the immobilised Region B peptide.
For test [3] the target is unchanged. As to the kind of experiment: SPR, His-PDK1 over the biotinylated peptide on Sensor Chip SA, steady state. On the technique in general: SPR reads the build-up and loss of mass on a sensor chip optically.

Ends that are not written are not given here. * marks the point of attachment. Biotin = O=C1N[C@H]2[C@H](CS[C@H]2CCCCC(=O)*)N1

T1 sequence (O75582 whole entry): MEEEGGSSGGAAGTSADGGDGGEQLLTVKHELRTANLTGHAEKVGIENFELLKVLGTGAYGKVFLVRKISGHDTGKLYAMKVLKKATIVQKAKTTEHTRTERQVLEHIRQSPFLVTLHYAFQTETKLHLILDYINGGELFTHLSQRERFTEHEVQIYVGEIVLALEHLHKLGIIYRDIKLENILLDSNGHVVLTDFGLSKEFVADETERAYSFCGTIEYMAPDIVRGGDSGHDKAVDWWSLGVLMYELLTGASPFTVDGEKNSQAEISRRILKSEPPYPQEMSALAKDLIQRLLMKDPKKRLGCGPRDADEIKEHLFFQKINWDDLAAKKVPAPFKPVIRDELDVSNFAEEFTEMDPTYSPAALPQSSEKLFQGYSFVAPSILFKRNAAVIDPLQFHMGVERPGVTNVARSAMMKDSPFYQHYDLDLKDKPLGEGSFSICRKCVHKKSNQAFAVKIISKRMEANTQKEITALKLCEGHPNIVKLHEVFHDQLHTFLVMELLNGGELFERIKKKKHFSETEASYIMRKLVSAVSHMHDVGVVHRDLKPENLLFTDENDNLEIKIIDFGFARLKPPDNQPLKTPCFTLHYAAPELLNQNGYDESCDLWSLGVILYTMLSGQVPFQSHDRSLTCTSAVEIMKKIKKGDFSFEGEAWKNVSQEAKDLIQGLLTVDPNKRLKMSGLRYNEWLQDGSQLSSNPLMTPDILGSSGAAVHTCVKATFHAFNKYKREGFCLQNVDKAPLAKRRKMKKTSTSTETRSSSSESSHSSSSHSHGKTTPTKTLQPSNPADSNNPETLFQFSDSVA

B1: endogenous PDK1 of 293 cells (enzyme, UniProt O15530 1-556, looked up)
chain: MARTTSQLYDAVPIQSSVVLCSCPSPSMVRTQTESSTPPGIPGGSRQGPAMDGTAAEPRPGAGSLQHAQPPPQPRKKRPEDFKFGKILGEGSFSTVVLARELATSREYAIKILEKRHIIKENKVPYVTRERDVMSRLDHPFFVKLYFTFQDDEKLYFGLSYAKNGELLKYIRKIGSFDETCTRFYTAEIVSALEYLHGKGIIHRDLKPENILLNEDMHIQITDFGTAKVLSPESKQARANSFVGTAQYVSPELLTEKSACKSSDLWALGCIIYQLVAGLPPFRAGNEYLIFQKIIKLEYDFPEKFFPKARDLVEKLLVLDATKRLGCEEMEGYGPLKAHPFFESVTWENLHQQTPPKLTAYLPAMSEDDEDCYGNYDNLLSQFGCMQVSSSSSSHSLSASDTGLPQRSGSNIEQYIHDLDSNSFELDLQFSEDEKRLLLEKQAGGNPWHQFVENNLILKMGPVDKRKGLFARRRQLLLTEGPHLYYVDPVNKVLKGEIPWSQELRPEAKNFKTFFVHTPNRTYYLMDPSGNAHKWCRKIQEVWRQRYQSHPDAAVQ
notes: Two bands (63 and 66 kDa) both co-purified with GST-PIF; also called PDK1 immunoreactive bands at 63 kDa and 66 kDa
On to B1, for which the binding result with GST-MSK1 is “no binding”.

B2: Region B peptide (24 residue synthetic peptide corresponding to Region B of PIF) (peptide)
peptide: REPRILSEEEQEMFRDFDYIADWC
notes: also called free peptide; wild type peptide
B2: the dissociation constant Kd (in general, a measure of binding affinity in units of concentration) in test [1] came out at 1500 nM. This counts as single-digit micromolar.

B3: D978A-Region B peptide (peptide)
peptide: REPRILSEEEQEMFRDFAYIADWC
notes: Range 961-984 is worked out from 'C-terminal 24 amino acids'
With B3, in test [2], the “fold less strongly than the Region B peptide” value stood at 10 fold.

B4: immobilised and biotinylated 24 residue synthetic peptide corresponding to the Region B peptide (peptide)
peptide: REPRILSEEEQEMFRDFDYIADWC(Biotin)
notes: also called Region B peptide, biotinylated
For the molecule B4, the Kd in test [3] was 800 nM.
